The values that follow come from patent US20250179163A1 (Sanofi, published 2025).

As a reminder, the Kd is the constant that tells how readily two partners part at equilibrium. A low value points to a tighter complex. As a reminder, the koff is a measure of how fast the partners let go of each other. Lower therefore signals slow dissociation. A word on the kon: it is a measure of how fast the partners come together. Lower therefore signals slower complex formation.

Experiment [1] deals with T1, Human TGFβ1 (human, UniProt P01137 279-390).
T1 construct: also called Transforming Growth Factor-β1
T1 sequence (P01137 279-390 limits assumed): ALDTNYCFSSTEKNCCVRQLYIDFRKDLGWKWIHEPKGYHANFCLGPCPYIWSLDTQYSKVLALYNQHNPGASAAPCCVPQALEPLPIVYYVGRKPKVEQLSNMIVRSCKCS
The experiment in a line: SPR (Biacore T200), TGFβ1 amine-coupled to CM5 chip, Fab injected. On the technique in general: In SPR one partner is held on a chip, and binding of the other changes the refractive index at the surface.

In experiment [2] the target is T1, Human TGFβ1.
The target in experiment [3] is T1, Human TGFβ1. The experiment in a line: Octet QK384, Fab from conditioned medium captured on anti-Fab-CH1 biosensors, 200 nM TGFβ1; qualitative. Here is the method: Conditioned media (CM) was harvested 4 days post-transfection and the Octet QK384 instrument was used to calculate expression level and TGFβ1 binding in a single assay. […] Binding to anti-Fab-CH1 biosensors was measured for 2 min at 1000 rpm and 30° C. plate temperature for quantitation and capture. The sensors were then moved into wells containing 200 nM of TGFβ1 for binding assessment.
A general note: Biolayer interferometry detects binding as a change in optical thickness at a sensor tip.

In the experiment with Human TGFβ1 [1], GC1008 Fab yielded a Kd of 2.9 nM, a koff of 0.00208 s⁻¹ and a kon of 711000 M⁻¹ s⁻¹.
In turn, GC1008 control (antibody) gave an IC50 (read off the curve) in the experiment with Human TGFβ1 [2] of 1 ng/mL.

B1: CAT192 A25S Fab (Fab, V domains shown)
VH: EVQLVESGGGVVQPGRSLRLSCAASGFTFSSYGMHWVRQAPGKELEWVAVISYDGSIKYYADSVKGRFTISRDNSKNTLYLQMNSLRAEDTAVYYCARTGEYSGYDTDPQYSWGQGTTVTVSS
VL: EIVLTQSPSSLSASVGDRVTITCRSSQGIGDDLGWYQQKPGKAPILLIYGTSTLQSGVPSRFSGSGSGTDFTLTINSLQPEDFATYYCLQDSNYPLTFGGGTRLEIKR
notes: Control light chain mutant in the Fv; His-tagged HC Fab, HC limits see recheck; also called A25S mutant
Consider B1, for which, in the experiment with Human TGFβ1 [3], the binding result is reported as “binds”.
